The values that follow come from patent US20230105029A1 (CHIA TAI TIANQING PHARMACEUTICAL GROUP, published 2023).

Experiment [1] concerns the target T1, recombinant human IL4Rα-his protein (in house made) (human, UniProt P24394 26-232, limits assumed).
T1 construct: also called Human IL4Ra-his
The experiment is described as follows: SPR (Biacore), antibody captured, IL4Rα-his flowed. As to the method:
Briefly, goat anti-mouse IgG (GE healthcare, Cat #BR100838, Mouse Antibody Capture Kit) was covalently linked to a CMS chip (carboxy methyl dextran coated chip) via primary amines, using a standard amine coupling kit provided by Biacore (GE healthcare, Pittsburgh, Pa., USA). Un-reacted moieties on the biosensor surface were blocked with ethanolamine. Then, purified anti-IL4Rα antibodies of the disclosure at the concentration of 66.67 nM and an anti-IL4Rα benchmark (Dupilumab®, also referred to as BM) at 10 μg/ml, were flowed onto the chip at a flow rate of 10 μL/min. Then, serially diluted recombinant human IL4Rα-his (in house made, amino acid sequence set forth in SEQ ID NO: 57), cynomolgus monkey IL4Rα-his protein (Sino biological inc., Cat #90897—C08H), or marmoset monkey IL4Rα-his protein (Custom made by Sino biological inc., also referred to as cal-IL4Rα-his, amino acid sequence set forth in SEQ ID NO: 58) in HBS EP buffer (provided by Biacore) was flowed onto the chip at a flow rate of 30 μL/min. The antigen-antibody association kinetics was followed for 2 minutes and the dissociation kinetics was followed for 10 minutes. The association and dissociation curves were fit to a 1:1 Langmuir binding model using BIA evaluation software.
A general note: Surface plasmon resonance follows binding to a sensor surface in real time, without labels.

Experiment [2] has as its target T1, recombinant human IL4Rα-his protein (in …). The experiment is described as follows: capture ELISA, biotin-IL4Rα-his. As for the experimental part:
(§1) Plates were washed once with wash buffer (PBS+0.05% w/v Tween-20, PBST) and then blocked with 200 μl/well blocking buffer (5% w/v non-fatty milk in PBST) for 2 hours at 37° C. Plates were washed again and incubated with 100 μl/well serially diluted anti-IL4Rα antibodies of the disclosure, the benchmark or negative control hIgG (human immunoglobulin (pH4) for intravenous injection, Hualan Biological Engineering Inc.) (5-fold dilution in 2.5% w/v non-fatty milk in PBST, starting at 66.7 nM) for 40 minutes at 37° C., and then washed 4 times again. Plates containing captured anti-IL4Rα antibodies were incubated with biotin-labeled human IL4Rα-his protein (in house made with SEQ ID NO: 57, 0.14 nM in 2.5% w/v non-fatty milk in PBST, 100 μl/well) for 40 minutes at 37° C., washed 4 times, and incubated with streptavidin conjugated HRP (1:10000 dilution in PBST, Jackson Immuno Research, Cat #016-030-084, 100 μl/well) for 40 minutes at 37° C. After a final wash, plates were incubated with 100 μl/well ELISA substrate TMB (Innoreagents, Cat #TMB-S-002). The reaction was stopped in 10 minutes at 25° C. with 50 μl/well 1M H₂SO₄, and the absorbance was read at 450 nm. Data was analyzed using Graphpad Prism software and EC₅₀ values were reported.
For orientation: In an ELISA, binding on a coated surface is turned into a signal by an enzyme label.

Experiment [3] has the same target. The experiment is described as follows: competitive ELISA, blocks biotin-IL4 binding to coated IL4Rα-his. As for the experimental part:
The activity of the anti-IL4Rα antibodies of the disclosure to block IL4-IL4Rα interaction was measured in a competitive ELISA assay. Briefly, 100 μl human IL4Rα-his proteins (prepared in-house with SEQ ID NO: 57) were coated on 96-well micro plates at 2 μg/mL in PBS overnight at 4° C. The next day, plates were washed with wash buffer (PBS+0.05% w/v Tween-20, PBST), and blocked with 5% w/v non-fatty milk in PBST for 2 hours at 37° C. Plates were then washed again using wash buffer.
Serially diluted anti-IL4Rα antibodies or the controls (starting at 80 nM with a 4-fold serial dilution) in 2.5% w/v non-fatty milk in PBST, 100 μl per well, were added to the IL4Rα bound plates, and incubated with the human IL4Rα-his proteins at 37° C. for 40 minutes. Plates were washed 4 times using wash buffer, and then added and incubated for 40 minutes at 37° C. with 100 μl/well of 0.56 nM biotin-labeled human IL4 protein (Sino biological inc., Cat #11846-HNAE). Plates were washed again using wash buffer. Thereafter, the plates were added with 100 μl/well of streptavidin conjugated HRP (1:10000 dilution in PBST buffer, Jackson Immunoresearch, Cat #016-030-084) and incubated for 40 minutes at 37° C. Plates were washed again using wash buffer. Finally, TMB was added and the reaction was stopped using 1M H₂SO₄, and the absorbance was read at 450 nm. Data was analyzed using Graphpad Prism software and IC₅₀ values were reported.

Experiment [4] shares this target. Kind of experiment: capture ELISA: antibody captured on anti-IgG Fc plate, biotin human IL4Rα-his detected. As to the method:
as §1
For the capture ELISA, 96-well micro plates were coated with 2 μg/ml goat anti-human IgG (AffiniPure Goat Anti-Human IgG, Fcγ fragment specific, Jackson Immunoresearch, Cat #109-005-098) instead of goat anti-mouse IgG Fey fragment, 100 μl/well.

Experiment [5] addresses T2, human IL4Rα expressed on 293F-IL4Rα cells (human, UniProt P24394 26-825).
T2 construct: whole, on cells; also called cell surface human IL4Rα
The experiment is described as follows: flow cytometry on 293F-IL4Rα cells.

In experiment [6] the target is T3, cynomolgus monkey IL4Rα-his protein (cynomolgus monkey, UniProt A0A2K5V580 33-239).
T3 construct: Bought protein; also called Cynomolgus IL4Rα; Cyno-IL4Rα-his; not shown: his tag
The experiment is described as follows: indirect ELISA on coated cynomolgus IL4Rα-his. As to the method:
The anti-IL4Rα antibodies' cross-reaction with cynomolgus IL4Rα proteins or cal-IL4Rα-his proteins were measured. Briefly, 96-well micro plates were coated with 2 μg/ml cynomolgus IL4Rα-his protein (Sino biological inc., Cat #90897—C08H) or 0.2 μg/ml cal-IL4Rα-his protein (Custom made by Sino biological inc., Cat #BAX2) in carbonate/bicarbonate buffer (pH 9.6), 100 μl/well, for 2 hours at 37° C. ELISA plates were washed once with wash buffer (PBS+0.05% w/v Tween-20, PBST) and then blocked with 200 μl/well blocking buffer (5% w/v non-fatty milk in PBST) for 2 hours at 37° C. Plates were washed again and incubated with 100 μl/well serially diluted anti-IL4Rα antibodies of the disclosure or controls (0.004-66.7 nM, 5-fold serial dilution in 2.5% w/v non-fatty milk in PBST, starting at 66.7 nM) for 40 minutes at 37° C. […] After a final wash, plates were incubated with 100 μl/well TMB (Innoreagents). The reaction was stopped 3-10 minutes later at 25° C. with 50 μl/well 1M H₂SO₄, and the absorbance was read at 450 nm. Data was analyzed using Graphpad Prism software and EC₅₀ values were reported.

B1: mouse antibody C2C1A1A1 (antibody, V domains shown)
VH: EVQLVESGGGLVQPGGSLKLSCAASGFTFSTYGMSWVRQTPDKRLELVATINSNGGSTSYPDSVKGRFTISRDNAKNTLYLQMSSLKSEDTAMFYCARFFRFRNAMDYWGQGTSVTVSS
VL: DIQMTQSPASLSASVGETVTITCRTSENIYSYLAWYQQKQGKSPQFLVYNAKTLAEGVPSRFSGSGSGTQFSLNINSLQSEDFGSYYCQHYYGPPTWTFGGGTKLEIK
notes: Mouse hybridoma mAb; also called Mouse C2C1A1A1
B1: the Kd – broadly, the free concentration of one partner at which half of the binding sites on the other are occupied at equilibrium, for simple one-to-one binding – in experiment [1] is 0.0401 nM. Further, in experiment [1], the koff (in general, a measure of how fast the partners let go of each other) amounted to 1.16e-05 s⁻¹. In addition, in experiment [1], the kon (usually the second-order rate constant of association) worked out at 290000 M⁻¹ s⁻¹. For the same molecule, the concentration for a half-maximal effect (EC50) (as a rule, the concentration needed to bring the measured effect to its halfway point) was 0.08 nM in experiment [2], 0.0262 nM in experiment [4], 0.307 nM in experiment [5] and 0.329 nM in experiment [6]. In addition, the IC50 (in general, the concentration that inhibits the measured activity by half) in experiment [3] came out at 0.81 nM.

B2: chimeric antibody C2C1A1A1 (antibody, human IgG4 S228P, kappa, V domains shown)
VH: EVQLVESGGGLVQPGGSLKLSCAASGFTFSTYGMSWVRQTPDKRLELVATINSNGGSTSYPDSVKGRFTISRDNAKNTLYLQMSSLKSEDTAMFYCARFFRFRNAMDYWGQGTSVTVSS
VL: DIQMTQSPASLSASVGETVTITCRTSENIYSYLAWYQQKQGKSPQFLVYNAKTLAEGVPSRFSGSGSGTQFSLNINSLQSEDFGSYYCQHYYGPPTWTFGGGTKLEIKR
notes: Mouse variable domains on human IgG4/kappa; also called Chimeric C2C1A1A1; chC2C1A1A1
Consider B2, for which the concentration for a half-maximal effect (EC50) is 0.0549 nM in experiment [4] and 0.63 nM in experiment [5].

B3: mouse antibody C2B2F7B7 (antibody, V domains shown)
VH: EVQLVESGGGLVQPGGSLKLSCAASGFTFSTYGMSWVRQTPDKRLELVATINSNGGSTNYPDSVKGRFTISRDNAKNTLYLQMSSLKSEDTAMYYCARFFRIRNAMDYWGQGTSVTVSS
VL: DIQMTQSPASLSASVGETVTITCRASENIYSYLAWYQQKQGKSPQFLVYNAKTLAEGVPSRFSGSGSGTQFSLKINSLQPEDFGSYYCQHYYGTPTWTFGGGTKLEIK
notes: Mouse hybridoma mAb
For the molecule B3, in experiment [1], the dissociation constant Kd was 0.554 nM, the off-rate constant (koff) is 0.000139 s⁻¹ and the association rate constant (kon) was 251000 M⁻¹ s⁻¹. Moreover, the concentration for a half-maximal effect (EC50) in experiment [2] is 0.13 nM. For the same molecule, in experiment [3], the IC50 came out at 0.73 nM. In addition, in experiment [6], a half-maximal response (EC50) required 108 nM.

B4: mouse antibody B8G11F2B7G5E8 (antibody, V domains shown)
VH: EVQLQQSGADLVRPGASVKLSCTASGFNIKDTYMHWVKQRPEQGLEWVGRIDPTNGYTIYASKFQGKATITADTSSNTAYMQLSSLTSGDTAVYHCVSRRPWFAYWGQGTLVTVSA
VL: DILMTQTPLSLPVSLGAQASISCRSSQSIVHSNGNTYLEWYLQKPGQSPKLLIYKVTNRFSGVPDRFSGSGSGTDFTLKISRVEAEDLGIYYCFQGSHVPYTFGGGTKLEIK
notes: Mouse hybridoma mAb; also called Mouse B8G11F2B7G5E8; mAb B8G11F2B7G5E8
For the molecule B4, the equilibrium dissociation constant (Kd) in experiment [1] came to 1.49 nM. The koff in experiment [1] came out at 0.000293 s⁻¹. Also, the kon in experiment [1] amounted to 197000 M⁻¹ s⁻¹. For the same molecule, the EC50 is 0.04 nM in experiment [2], 0.143 nM in experiment [4], 0.412 nM in experiment [5] and 0.291 nM in experiment [6]. Also, in experiment [3], the concentration for half-maximal inhibition (IC50) turned out to be 0.81 nM.

B5: chimeric antibody B8G11F2B7G5E8 (antibody, human IgG4 S228P, kappa, V domains shown)
VH: EVQLQQSGADLVRPGASVKLSCTASGFNIKDTYMHWVKQRPEQGLEWVGRIDPTNGYTIYASKFQGKATITADTSSNTAYMQLSSLTSGDTAVYHCVSRRPWFAYWGQGTLVTVSA
VL: DILMTQTPLSLPVSLGAQASISCRSSQSIVHSNGNTYLEWYLQKPGQSPKLLIYKVTNRFSGVPDRFSGSGSGTDFTLKISRVEAEDLGIYYCFQGSHVPYTFGGGTKLEIKR
notes: Mouse variable domains on human IgG4/kappa; also called Chimeric B8G11F2B7G5E8; chB8G11F2B7G5E8
For B5, the EC50 in experiment [4] amounted to 0.275 nM; in experiment [5], 0.775 nM.

B6: mouse antibody B1D2F7D3B5 (antibody, V domains shown)
VH: EVKLVESGGGLVKPGGSLKLSCAASGFTFSSYAMSWVRQTPEKRLEWVASISSGDSTYYLDSVKGRFTISRDNAMNILYLQMSSLRSEDTAVYYCERSGGSAPYWGQGTLVSVSA
VL: QIVLTQSPAIMSASPGEMVTISCSASSSVSYMYWYQQKPGSSPKPWIYRTSNLASGVPARFSGSGSGTSYSLTISSMEAEDAATYYCQQYHSFPLTFGAGTKLELK
notes: Mouse hybridoma mAb
Take B6: in experiment [1], the dissociation constant Kd was 0.623 nM, the off-rate constant (koff) was 0.000266 s⁻¹ and the on-rate (kon) worked out at 427000 M⁻¹ s⁻¹. Further, the 50% effective concentration (EC50) in experiment [2] is 0.06 nM. For the same molecule, the IC50 in experiment [3] is 1.8 nM.

B7: mouse antibody B9D1D11F8D8 (antibody, V domains shown)
VH: EVKLVESGGGLVKPGGSLKLSCAASGFTFSSYAMSWVRQTPEKRLEWVASISSGDSTYYLDSVKGRFTISRDNARNILYLQVSSLRSEDTAMYYCERSGGSAPYWGQGTLVTVSA
VL: QIVLTQSPAIMSASPGDMVTISCSASSSVNYMYWYQQKPGSSPKPWIYRTSNLASGVPARFSGSGSGTSYSLTISSMEAEDAATYYCQQYHSFPLTFGAGTKLELK
notes: Mouse hybridoma mAb
For the molecule B7, in experiment [1], the Kd amounted to 0.655 nM, the koff came to 0.000274 s⁻¹ and the on-rate constant (kon) worked out at 418000 M⁻¹ s⁻¹. In addition, in experiment [2], the EC50 was found to be 0.07 nM. Also, the half-maximal inhibitory concentration (IC50) in experiment [3] stood at 2.88 nM.
